For one molecule, Kd results are on record in publication PMC2828873 (2009).

The target in this test is Stargazin-derived probe 12 (Rattus norvegicus, UniProt Q71RJ2, N-acetyl, X=Dab(4-DMAP), NRR added). The test is described as follows: fluorescence titration.

B1: Shank3 PDZ (protein)
chain: DDKVAILQKRDHEGFGFVLRGAKAETPIEEFTPTPAFPALQYLESVDVEGVAWKAGLRTGDFLIEVNGVNVVKVGHKQVVGLIRQGGNRLVMKVVSVTRKP
As for B1, the dissociation constant (Kd) (usually the concentration at which binding is half-saturated) was 10 µM.
